From patent US20030144208A1 (ZymoGenetics, published 2003) come the findings set out here.

The test deals with T1, BSA V (Sigma Co.) (bovine, UniProt P02769 25-607).
T1 construct: Negative control of the ELISA; also called BSA control; bovine serum albumin
Put plainly: ELISA on plated matrix protein, anti-FITC/biotin, streptavidin/HRP, chemiluminescence on film. The method, then: An ELISA (Enzyme-linked Immunosorbant Assay) was used to measure binding of zsig37 to various matrix proteins and complement C1q. The matrix proteins used were Bovine Collagen Type I (Becton Dickinson, Lincoln Park, N.J.) laminin, vitronectin, fibronectin, human collagen Types II, III, IV, V, VI (Chemicon International, Temecula, Calif.). BSA V (Sigma Co.) was used as a negative control. Just prior to use, the proteins were diluted in 2×PBS (Phosphate Buffered Saline, Sigma Co.) to 100 μg/ml and adjusted to pH 7.2 with 0.1 N NaOH. Each protein sample was quadruplicate plated (100 μl/well) into a 96 well plate. The plate was allowed to dry overnight in a laminar flow hood and washed 3 times with 400 μl of 5 mg/ml BSA in 1×PBS and blotted dry. Zsig37 was FITC labeled according to manufacturer's instruction (Pierce, Rockford, Ill.). Into each well was added 100 μl of 1.8 μg/ml zsig37-FITC in 5% BSA, PBS. The plates were incubated for 1.5 hours at room temperature then washed 3 time with 5% BSA, PBS. To each well was then added 100 μl of 1:400 mouse anti-FITC/Biotin (Sigma Co.). The plate was incubated 1.5 hours at room temperature and washed 3 times with 5% BSA, PBS. The plate was then incubated with 100 μl of 1:1000 streptavidin/HRP (Amersham, Piscataway, N.J.) for 1 hour and washed 3 times with 5% BSA, PBS. […]
In general terms: In an ELISA, binding on a coated surface is turned into a signal by an enzyme label.

T1 sequence (P02769 25-607 limits assumed): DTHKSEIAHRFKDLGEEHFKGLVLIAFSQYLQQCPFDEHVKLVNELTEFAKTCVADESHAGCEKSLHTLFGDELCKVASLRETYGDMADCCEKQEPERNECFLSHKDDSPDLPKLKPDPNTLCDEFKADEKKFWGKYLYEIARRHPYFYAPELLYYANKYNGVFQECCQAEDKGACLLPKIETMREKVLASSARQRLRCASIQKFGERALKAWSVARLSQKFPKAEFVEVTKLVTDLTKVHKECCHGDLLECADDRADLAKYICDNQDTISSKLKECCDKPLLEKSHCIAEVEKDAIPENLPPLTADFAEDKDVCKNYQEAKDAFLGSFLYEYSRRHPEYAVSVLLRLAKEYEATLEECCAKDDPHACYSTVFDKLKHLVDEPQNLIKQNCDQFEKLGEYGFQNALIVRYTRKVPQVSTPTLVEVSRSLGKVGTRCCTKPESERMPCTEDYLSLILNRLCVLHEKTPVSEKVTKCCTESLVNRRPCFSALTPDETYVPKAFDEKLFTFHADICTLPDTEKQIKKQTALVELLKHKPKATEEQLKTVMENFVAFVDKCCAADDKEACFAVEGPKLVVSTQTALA

B1: zsig37-FITC (ligand)
chain: LVLSRVPHVQGEQQEWEGTEELPSPPDHAERAEEQHEKYRPSQDQGLPASRCLRCCDPGTSMYPATAVPQINITILKGEKGDRGDRGLQGKYGKTGSAGARGHTGPKGQKGSMGAPGERCKSHYAAFSVGRKKPMHSNHYYQTVIFDTEFVNLYDHFNMFTGKFYCYVPGLYFFSLNVHTWNQKETYLHIMKNEEEVVILFAQVGDRSIMQSQSLMLELREQDQVWVRLYKGERENAIFSEELDTYITFSGYLVKHATEP
modifications: FITC label (sites not given)
notes: 22-281 is used here; also called FITC labeled zsig37; FITC tagged Zsig37 protein
Turning to B1, the binding result is reported as “no binding (tested: 1.8 µg/ml zsig37-FITC)”.
